Experimental data taken from paper PMC1868955, “Crystal Structure of the P Pilus Rod Subunit PapA” (PLoS Pathogens, 2007).

How the values were obtained:
[1] = biological target: the molecule itself; test: SEC; gel filtration of co-expressed PapDHis/PapA complexes immediately after purification; Superdex75 120 ml, 20 mM TrisHCl pH 7.5, 20 mM NaCl
[2] = biological target: the molecule itself; test: negative-stain electron microscopy; PapD/PapA samples frozen and thawed five times at 150 μg/ml in 10–20 mM TrisHCl pH 7.6, 20–50 mM NaCl; used the same day or kept at 4 °C up to 40 d; 1% uranyl acetate

| Protein | binding result [1] | binding result [2] |
| --- | --- | --- |
| PapA Ntd1 (residues 2 to 8 deleted) (natural protein, also called Ntd1 (Δ2–8); source: E. coli C600, co-expressed with PapDHis) AGKVTFNGTVVDAPCSISQKSADQSIDFGQLSKSFLEAGGVSKPMDLDIELVNCDITAFKGGNGAKKGTVKLAFTGPIVNGHSDELDTNGGTGTAIVVQGAGKNVVFDGSEGDANTLKDGENVLHYTAVVKKSSAVGAAVTEGAFSAVANFNLTYQ | binds | – |
| PapA Ntd1 G15N T101L (residues 2 to 8 deleted, G15N, T101L) (natural protein, Two copies stand in the PapD/(PapA)2 complex: one donor-strand complemented by PapD (dscPapA), one donor-strand exchanged with the Nte of the first (dsePapA); also called dscPapA; dsePapA; source: E. coli C600, co-expressed with PapDHis) AGKVTFNNTVVDAPCSISQKSADQSIDFGQLSKSFLEAGGVSKPMDLDIELVNCDITAFKGGNGAKKGTVKLAFTGPIVNGHSDELDTNGGTGLAIVVQGAGKNVVFDGSEGDANTLKDGENVLHYTAVVKKSSAVGAAVTEGAFSAVANFNLTYQ | binds | – |
| PapA G15N (natural protein, source: E. coli C600, co-expressed with PapDHis) APTIPQGQGKVTFNNTVVDAPCSISQKSADQSIDFGQLSKSFLEAGGVSKPMDLDIELVNCDITAFKGGNGAKKGTVKLAFTGPIVNGHSDELDTNGGTGTAIVVQGAGKNVVFDGSEGDANTLKDGENVLHYTAVVKKSSAVGAAVTEGAFSAVANFNLTYQ | binds | – |
| PapA I4G G15N (natural protein, source: E. coli C600, co-expressed with PapDHis) APTGPQGQGKVTFNNTVVDAPCSISQKSADQSIDFGQLSKSFLEAGGVSKPMDLDIELVNCDITAFKGGNGAKKGTVKLAFTGPIVNGHSDELDTNGGTGTAIVVQGAGKNVVFDGSEGDANTLKDGENVLHYTAVVKKSSAVGAAVTEGAFSAVANFNLTYQ | binds | – |
| PapA I4G (natural protein, source: E. coli C600, co-expressed with PapDHis) APTGPQGQGKVTFNGTVVDAPCSISQKSADQSIDFGQLSKSFLEAGGVSKPMDLDIELVNCDITAFKGGNGAKKGTVKLAFTGPIVNGHSDELDTNGGTGTAIVVQGAGKNVVFDGSEGDANTLKDGENVLHYTAVVKKSSAVGAAVTEGAFSAVANFNLTYQ | – | binds |
